As usually defined, the stoichiometry N is a count of units in the complex or per binding partner.

The series “crystal structure” deals with the molecule itself. Briefly: crystal structure.
The series “turbidity assay” deals with the molecule itself. Briefly: turbidity assay.

B1: CASQ1 S248E (amino acids 35-396) (natural protein, human, UniProt P31415 35-396, looked up)
chain: QEGLDFPEYDGVDRVINVNAKNYKNVFKKYEVLALLYHEPPEDDKASQRQFEMEELILELAAQVLEDKGVGFGLVDSEKDAAVAKKLGLTEVDSMYVFKGDEVIEYDGEFSADTIVEFLLDVLEDPVELIEGERELQAFENIEDEIKLIGYFKSKDSEHYKAFEDAAEEFHPYIPFFATFDSKVAKKLTLKLNEIDFYEAFMEEPVTIPDKPNEEEEIVNFVEEHRRSTLRKLKPESMYETWEDDMDGIHIVAFAEEADPDGFEFLETLKAVAQDNTENPDLSIIWIDPDDFPLLVPYWEKTFDIDLSAPQIGVVNVTDADSVWMEMDDEEDLPSAEELEDWLEDVLEGEINTEDDDDDDDD
For the protein B1, in “crystal structure”, the “stoichiometry N” value came to 2.

B2: CASQ1 S248/369E (amino acids 35-396) (natural protein, human, UniProt P31415 35-396, looked up)
chain: QEGLDFPEYDGVDRVINVNAKNYKNVFKKYEVLALLYHEPPEDDKASQRQFEMEELILELAAQVLEDKGVGFGLVDSEKDAAVAKKLGLTEVDSMYVFKGDEVIEYDGEFSADTIVEFLLDVLEDPVELIEGERELQAFENIEDEIKLIGYFKSKDSEHYKAFEDAAEEFHPYIPFFATFDSKVAKKLTLKLNEIDFYEAFMEEPVTIPDKPNEEEEIVNFVEEHRRSTLRKLKPESMYETWEDDMDGIHIVAFAEEADPDGFEFLETLKAVAQDNTENPDLSIIWIDPDDFPLLVPYWEKTFDIDLSAPQIGVVNVTDADSVWMEMDDEEDLPEAEELEDWLEDVLEGEINTEDDDDDDDD
As for B2, in “turbidity assay”, the binding result is reported as “binds”.

B3: CASQ1 S369E (amino acids 35-396) (natural protein, human, UniProt P31415 35-396, looked up)
chain: QEGLDFPEYDGVDRVINVNAKNYKNVFKKYEVLALLYHEPPEDDKASQRQFEMEELILELAAQVLEDKGVGFGLVDSEKDAAVAKKLGLTEVDSMYVFKGDEVIEYDGEFSADTIVEFLLDVLEDPVELIEGERELQAFENIEDEIKLIGYFKSKDSEHYKAFEDAAEEFHPYIPFFATFDSKVAKKLTLKLNEIDFYEAFMEEPVTIPDKPNSEEEIVNFVEEHRRSTLRKLKPESMYETWEDDMDGIHIVAFAEEADPDGFEFLETLKAVAQDNTENPDLSIIWIDPDDFPLLVPYWEKTFDIDLSAPQIGVVNVTDADSVWMEMDDEEDLPEAEELEDWLEDVLEGEINTEDDDDDDDD
With B3, the binding result in the series “turbidity assay” is reported as “binds”.

Values taken from article doi:10.1101/2021.07.06.451223 (bioRxiv, 2021).
